Laboratory results taken from the supplement of paper PMC9170038.

Test system: MS2 coat protein
Assay: apparent KD of MS2 coat protein; designed switch direction (-1 OFF switch, 1 ON switch): -1; higher = weaker reporter binding
Outline: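 RNA switches sharing common flanks were transcribed by stalled E. coli RNA polymerase on Illumina chips. A doubling series of SNAP-549-labelled MS2 coat protein, from 0.7 or 1.5 nM to 3 µM, was applied in Tris-HCl pH 7.5 buffer with KCl, MgCl2, BSA, DTT, tRNA and Tween-20. Each step lasted 0.8–1.5 h at the bottom of the series and 10–20 min at the top. Normalised cluster fluorescence was curve-fitted, giving apparent KD as the per-design median over clusters.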

[1] = input ligand: microRNA oligo, concentration not stated
[2] = Eterna round: R95, input ligand: FMN 200 uM
[3] = Eterna round: R95, input ligand: microRNA oligo, concentration not stated
[4] = Eterna round: R95, input ligand: none

Sequence | apparent KD of MS2 coat protein (input ligand: FMN 200 uM) [µM] | apparent KD of MS2 coat protein (input ligand: none) [µM] | apparent KD of MS2 coat protein [1] [µM] | apparent KD of MS2 coat protein [2] [µM] | apparent KD of MS2 coat protein [3] [µM] | apparent KD of MS2 coat protein [4] [µM]
UCUCAGCCUAAGGAUAUGAGCCGAACCAAAAGUUCAGAAGGUAGGACAUGAGGAUCACCCAUGUGAGCCUACAC [Eternabot (Original) Solution 39] (Eterna round: R97, puzzle: Exclusion 6) | 0.0343 | 0.0213 |  |  |  | 
ACAUGAGGAUCACCCAUGUGAACAUGAUGGCUGAUGUAGAGCUAGGAUAUGAGUGAAUAUCUAUCUCAGAAGGAGCUUGACUGG [Deportation 47 - Jieux - Exclusion NG 3] (Eterna round: R96, puzzle: Exclusion NG 3) | 0.0341 | 0.0232 | 0.0141 |  |  | 
CUAGAUCUUCGGAUCUAGUACAUGAGGAUCACCCAUGUGACGAGUAGAUCCUCAAACAAGCUUUUUGCUCGUCUUAU [Sensor v3 - Turn-off variant 1 - 20] (Eterna round: R96, puzzle: Sensor v3, turn-off variant 1) | 0.132 | 0.194 | 0.0164 |  |  | 
GAGGUGUUAGGAUAUCGGAGAUGGAGAAGAACGGGAUGAGCCGAGAAGGAACAUGAGGAUCACCCAUGUAGGUG [JR_Exclu4_Sub031] (puzzle: Exclusion 4) |  |  |  | 0.415 | 0.42 | 0.553
UAGAUACAUGAGGAUCACCCAUGUGAGGAUAUGAAUAAGAAUAGAUAAGAUAGUAGAAUCAGAAGGCACAAUGG [Starry Exclusion 1.2] (puzzle: Exclusion 1) |  |  |  | 0.0701 | 0.0474 | 0.0518
UAUAUAUAGUAAGGAUAUGUAAUUAUUUGAUAAACAGAAGGUACUGACAUGAGGAUCACCCAUGUUUUAGUGUGGGCAUGUAGA [JMF's solution 42] (Eterna round: R96, puzzle: Exclusion NG 1) |  |  | 0.0727 |  |  | 
ACAUGAGGAUCACCCAUGUGGGUUCUCCAGCAUAAUAAGAGGUAGGAUAUGCAGUCGCCGAAGGAGCAGAAGGACCGCGUUUAU [Eternabot solution 50] (Eterna round: R96, puzzle: Exclusion NG 3) | 0.0671 | 0.0435 | 0.0297 |  |  | 
AUCGUGUGAGGAUAUCGAUCAUGGAGGUCUAGGUCUAUGCGCGAGAAGGCACAUGAGGAUCACCCAUGUAAUGG [jl-ex4-4.29 ViennaUCT mod] (Eterna round: R97, puzzle: Exclusion 4) | 0.0599 | 0.636 |  |  |  | 
AUAAUACAUGAGGAUCACCCAUGUGAGGAUAUACGACUCCAACCUAACAGCUUGGACCGUAGAAGGCACAAGGG [Exclusion 1 (MOD1.2 Esqu)] (Eterna round: R97, puzzle: Exclusion 1) | 0.0545 | 0.261 |  |  |  | 
AAGAUACAUGAGGAUCACCCAUGUUAGGAUAUACGCAUGCAUGCAUGCAUGCAUGCAAGUAGAAGGAACCAUGC [Design #3] (Eterna round: R97, puzzle: Exclusion 1) | 0.0292 | 0.0284 |  |  |  | 
AGUACUGACGCGUCGGUGUUAGUACAAUAAGCUUGUGAAACAUGAGGAUCACCCAUGUCCUCAUAAGCUCGUCUUAU [salish99_TOv2_r3_082] (puzzle: Sensor v3, turn-off variant 2) |  |  |  | 0.0159 | 0.72 | 0.0154
GGAUCGUAUGUGAGGAUAUACCACUGGAUACAGUGGUAGAAGGCACAUGAGGAUCACCCAUGUCCUAUCGAUCC [Fiskers BMX 4 - 54] (puzzle: Brourd's mod of Exclusion 4) |  |  |  |  | 0.132 | 
GGAUCGAAAGUGAGGAUAUACCUAUGGAAACAUAGGUAGAAGGCACAUGAGGAUCACCCAUGUUCCUACGGUCC [Mat - Exclusion 4 - Eli Mod - D10] (Eterna round: R97, puzzle: Brourd's mod of Exclusion 4) | 0.113 | 0.02 |  |  |  | 
GGCCUGGAAGGAUAUACAUGAGGAUCACCCAUGUGAAGCCGGUGCAAAUUGACACGAUGUAGAAGGUCCAGCCG [Eternabot (L1) Solution 92] (Eterna round: R97, puzzle: Exclusion 3) | 0.467 | 0.172 |  |  |  | 
ACAAGCUUUUUGCUCGGGUACAUGAGGAUCACCCAUGUUUGGGUUUAUUGAGGUUGUGUUGUCGUGCGCUGCAGGUU [JR_SV3TOV1_Sub076] (puzzle: Sensor v3, turn-off variant 1) |  |  |  | 0.165 | 0.416 | 0.232
CCAGAGUGAGGAUAUGCAUAAAGGUGCUGUCCCGUGGCUUGACAUGAGGAUCACCCAUGUAGAAGGUGCGUUGU [Raonra] (Eterna round: R96, puzzle: Exclusion 2) | 0.0516 | 0.0544 | 0.0356 |  |  | 
CCAAGAAUAGGAUAUACACCAUGUCAGCUUAUAUACAACGCACAUGAGGAUCACCCAUGUAGAAGGGUUCUCUC [Exclusion-2-#2] (Eterna round: R97, puzzle: Exclusion 2) | 0.571 | 0.823 |  |  |  | 

Sequence | apparent KD of MS2 coat protein (input ligand: FMN 200 uM) [µM] | apparent KD of MS2 coat protein (input ligand: none) [µM] | apparent KD of MS2 coat protein [1] [µM] | apparent KD of MS2 coat protein [2] [µM] | apparent KD of MS2 coat protein [3] [µM] | apparent KD of MS2 coat protein [4] [µM]
CGUUCGCGAGGAUAUGCAUUCGAGUCCACUACGUGUCUGGGACUUGAGGAUCACCCAAGUAGAAGGCGCCUCCA [salish99_ex2_r4_650] (Eterna round: R97, puzzle: Exclusion 2) | 0.0785 | 0.13 |  |  |  | 
UUCCUCACUUCUUUGUCUCACAUGAGGAUCACCCAUGUAAUAUAGGAUAUGCUUAGUAUUUUUAUGCAGAAGGAUAUUAGUUUU [JR_ExcNG3_Sub085] (Eterna round: R96, puzzle: Exclusion NG 3) | 0.169 | 0.0398 | 0.0328 |  |  | 
AAUAACAGAGGAUAUACUGUUUUAUGUAUUUAUUAUUUUAAACAUGAGGAUCACCCAUGUAGAAGGCUGAUUGA [JMF 71] (puzzle: Exclusion 2) |  |  |  |  | 0.0268 | 
CUAAAUCAUGUAGGAUAUGCGUGGCGAAGCUAUGCAGAAGGACAUGAGGAUCACCCAUGUCUUUCCGUCUGCGUACAGACGGAA [JL ENG1 1.19] (Eterna round: R96, puzzle: Exclusion NG 1) | 0.303 | 0.0235 | 0.0173 |  |  | 
UUUUAACAUGAGGAUCACCCAUGUGAGGAUAUCGAAAUUUAUAUUAAUAUUAUUAAAUCGAGAAGGCACAUUUU [JMF 36] (puzzle: Exclusion 1) |  |  |  |  | 0.104 | 
UCUCUGCGAGGAUAUACGUUUGCGCGCUUUCGUUUGCGCGUACAUGAGGAUCACCCAUGUAGAAGGCGCGUUUC [Apr-15 SS2-9] (puzzle: Exclusion 2) |  |  |  |  | 0.0126 | 
AAUUAAGCAAGCAGAUCCCACAUGAGGAUCACCCAUGUGCUCGUCUUAUAAGGUACUGUGACGAUAGUCACGGUACC [Mat - Sensor, turn-off var - Eli Mod - D71] (Eterna round: R97, puzzle: Sensor, turn-off variant 1) | 0.135 | 0.14 |  |  |  | 
UAGAUACAUGAGGAUCACCCAUGUGAGGAUAUGAGGGUUAGCUUAAAUGGGCUGACUUUCAGAAGGCACAAGAA [JR_Ex1_Sub057] (Eterna round: R97, puzzle: Exclusion 1) | 0.0947 | 0.043 |  |  |  | 
AUGCUCAUAGGAUAUAGAUUGAUUCACAUGAGGAUCACCCAUGUAAACUCUACUUUUUAACUAGAAGGAUGUUUUU [JR_E5_Sub018] (puzzle: Exclusion 5) |  |  |  |  | 0.0253 | 
AAGAAACAUGAGGAUCACCCAUGUGAGGAUAUGUAAAAUAAAAGAAAAUAAAGAAUAAACAGAAGGCACAAAGG [Mat - Mod of Hog D23] (puzzle: Exclusion 1) |  |  |  | 0.048 | 0.0466 | 0.0435
CGUUCGCGAGGAUAUGCAUUCGAGUCCAUUACGUGUCUGGGACUUGAGGAUCACCCAAGUAGAAGGCGUCUCAC [salish99_ex2_r4_646] (Eterna round: R97, puzzle: Exclusion 2) | 0.135 | 0.154 |  |  |  | 
UUAAAUCAUGUAGGAUAUGCGUGGCGAAGCUAUGCAGAAGGACAUGAGGAUCACCCAUGUUCUAGCGUCCGCGUACGGAUGCAA [JL Eng1 1.21 mod 10] (Eterna round: R96, puzzle: Exclusion NG 1) | 0.144 | 0.0186 | 0.012 |  |  | 
CGGUGCUGAGGAUAUACAUGAGGAUCACCCAUGUGUUCCAGCUAGGUGACUGGCGGAUGUAGAAGGCGGUACUG [JL-ex3-3.39 Brourd mod] (puzzle: Exclusion 3) |  |  |  | 0.245 | 0.0312 | 0.0648
UUAUUAUAUGUAGGAUAUGCAUAUUAUUAUUAUGCAGAAGGACAUGAGGAUCACCCAUGUAUGUUAUUAUUAUAUAUUAUAUAU [Title] (Eterna round: R96, puzzle: Exclusion NG 1) |  |  | 0.0207 |  |  | 
CUCCUCAUGGCGCCUAAACACAUGAGGAUCACCCAUGUACAGGCUUUCUGCCGUCUUAUAAUAAAACCGAGGAUGCG [Soedlexe] (puzzle: Sensor v3, turn-off variant 1) |  |  |  | 0.0336 | 0.212 | 0.0421
AAUAACAAGCUGAUCCUCCACAUGAGGAUCACCCAUGUGUUCGUCUUGUAAAGUACUAUCACGAAAGUGAUAGUACA (Eterna round: R97, puzzle: Sensor, turn-off variant 1) | 0.984 | 1.63 |  |  |  | 
CACCGUUAGUGAGGAUAUCUUACAUGAGGAUCACCCAUGUAAUAAAUGAGAAUUUCGGAUGUAUUAGAGAAGGCACAAAUCGGC [Ostricism 57 - Jieux - Exclusion NG 2] (Eterna round: R96, puzzle: Exclusion NG 2) |  |  | 0.0177 |  |  | 
